Measurements from patent US20070134248A1.

Target: KV4-1 Id proteins
Test: ELISA

KV4-1 Id proteins recognized / tested (of 41 Id proteins): 35
B1: mAb clone 12C3 (antibody, V domains shown)
VH: EVKLVESGGGLVQPGGSLSLSCAASGFTYTDYYMNWVRQPPGKALEWLALIRNKANGYTTEYSASLKGRFTISRDNSQSILYLQMNALRAEDSATYYCVRENINYYFDYWGQGTTLTVSS
VL: DIVLTQSPASLAVSLGQRATISCRASESVEYFGASLMQWYQQKSGQPPKLLIRAATNVESGVPARFSGSGSGTDFSLNIHPVEEDDIAMYFCQQSRKVPWTFGGGTKLEIKR
